Measurements taken from article PMC9987972, “Interaction of the periplasmic chaperone SurA with the inner membrane protein secretion (SEC) machinery” (Biochemical Journal, 2023).

T1: SurA (E. coli), P0ABZ6
T1 chain: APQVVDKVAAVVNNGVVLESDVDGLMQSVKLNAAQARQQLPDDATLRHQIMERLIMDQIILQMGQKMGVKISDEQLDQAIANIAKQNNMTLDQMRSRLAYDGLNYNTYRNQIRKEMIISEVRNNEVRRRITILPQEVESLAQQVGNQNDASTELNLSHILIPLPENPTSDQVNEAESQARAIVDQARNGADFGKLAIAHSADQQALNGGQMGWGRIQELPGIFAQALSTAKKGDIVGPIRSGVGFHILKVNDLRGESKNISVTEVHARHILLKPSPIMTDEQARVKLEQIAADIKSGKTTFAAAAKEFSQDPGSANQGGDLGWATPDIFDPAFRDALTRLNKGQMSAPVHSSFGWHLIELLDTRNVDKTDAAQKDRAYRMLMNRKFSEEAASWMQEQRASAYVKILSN


Key:
SurA (E. coli), P0ABZ6 = target: T1, SurA (E. coli), P0ABZ6; assay: native gel or EMSA; NativePAGE Bis-Tris 3–12%; HTL 3.8 µM with SurA or SurA:OmpA at 1:3 molar ratio, or each alone, in TS130G (20 mM Tris-HCl pH ≈ 8, 130 mM NaCl, 10% glycerol) + 0.01% DDM-CL, 30 min at 30°C; bands excised and analysed by SDS–PAGE with silver staining; details: remark: other sources report otherwise
[1] = target: the molecule itself; assay: as above

| stoichiometry N (SurA (E. coli), P0ABZ6) | Binder | stoichiometry N [1] |
| --- | --- | --- |
| 2 | SurA, P0ABZ6 21-428 (natural protein) APQVVDKVAAVVNNGVVLESDVDGLMQSVKLNAAQARQQLPDDATLRHQIMERLIMDQIILQMGQKMGVKISDEQLDQAIANIAKQNNMTLDQMRSRLAYDGLNYNTYRNQIRKEMIISEVRNNEVRRRITILPQEVESLAQQVGNQNDASTELNLSHILIPLPENPTSDQVNEAESQARAIVDQARNGADFGKLAIAHSADQQALNGGQMGWGRIQELPGIFAQALSTAKKGDIVGPIRSGVGFHILKVNDLRGESKNISVTEVHARHILLKPSPIMTDEQARVKLEQIAADIKSGKTTFAAAAKEFSQDPGSANQGGDLGWATPDIFDPAFRDALTRLNKGQMSAPVHSSFGWHLIELLDTRNVDKTDAAQKDRAYRMLMNRKFSEEAASWMQEQRASAYVKILSN | – |
| – | SurA–OmpA complex (complex, SurA, periplasmic chaperone, E. coli; as the chain of m2; OmpA, outer membrane protein, from pET11a-ompA; also called substrate-engaged SurA; occupied chaperone; source: E. coli BL21(DE3), made separately; OmpA pellet in 6 M urea mixed with SurA supernatant, urea dialysed away, purified (HisTrap, HiTrap Q; S200 SEC for the size exclusion experiments)) chain 1: APQVVDKVAAVVNNGVVLESDVDGLMQSVKLNAAQARQQLPDDATLRHQIMERLIMDQIILQMGQKMGVKISDEQLDQAIANIAKQNNMTLDQMRSRLAYDGLNYNTYRNQIRKEMIISEVRNNEVRRRITILPQEVESLAQQVGNQNDASTELNLSHILIPLPENPTSDQVNEAESQARAIVDQARNGADFGKLAIAHSADQQALNGGQMGWGRIQELPGIFAQALSTAKKGDIVGPIRSGVGFHILKVNDLRGESKNISVTEVHARHILLKPSPIMTDEQARVKLEQIAADIKSGKTTFAAAAKEFSQDPGSANQGGDLGWATPDIFDPAFRDALTRLNKGQMSAPVHSSFGWHLIELLDTRNVDKTDAAQKDRAYRMLMNRKFSEEAASWMQEQRASAYVKILSN chain 2: APKDNTWYTGAKLGWSQYHDTGFINNNGPTHENQLGAGAFGGYQVNPYVGFEMGYDWLGRMPYKGSVENGAYKAQGVQLTAKLGYPITDDLDIYTRLGGMVWRADTKSNVYGKNHDTGVSPVFAGGVEYAITPEIATRLEYQWTNNIGDAHTIGTRPDNGMLSLGVSYRFGQGEAAPVVAPAPAPAPEVQTKHFTLKSDVLFNFNKATLKPEGQAALDQLYSQLSNLDPKDGSVVVLGYTDRIGSDAYNQGLSERRAQSVVDYLISKGIPADKISARGMGESNPVTGNTCDNVKQRAALIDCLAPDRRVEIEVKGIKDVVTQPQA | 2 |
